One assay relates to MRSA strain USA300. In words: Flow cytometry binding of mAbs to USA300 bacteria. On the set-up: species or system Staphylococcus aureus. Particulars: MFI. As to the method:
(§1) (FIGS. 5A-C) Bacteria were preopsonized with huIgG1 mAbs rF1 (squares), 4675 anti-ClfA (triangles), or anti-herpes virus gD (circles). (FIG. 5A): Binding of mAbs to WT (USA300-Aspa) bacteria was assessed by flow cytometry, and expressed as mean fluorescent intensity (MFI). (FIG. 5B): CFSE-labeled, preopsonized WT (USA300-Aspa) bacteria were incubated with human PMN. Bacterial uptake was expressed as % of CFSE-positive PMN, after gating for CD11b-positive cells by flow cytometry. (FIG. 5C): Preopsonized WT (USA300-Aspa) bacteria were incubated with PMN to assess bacterial killing. Numbers of viable CFU per mL are representative of at least three experiments.
(§2) Whole bacteria were harvested from TSA plates or TSB cultures and washed with HBSS without phenol red supplemented with 0.1% IgG free BSA (Sigma) and 10 mM Hepes, pH 7.4 (HB buffer) Bacteria (20×10^8 CFU/mL) were incubated with 300 μg/mL of rabbit IgG (Sigma) in HB buffer for 1 h at room temperature (RT) to block nonspecific IgG binding. Bacteria were stained with 2 μg/mL of primary antibodies, including rF1 or isotype control IgG1 mAb gD:5237 (Nakamura G R, et al. (1993) J Virol 67: 6179-6191), and next with fluorescent anti-human IgG secondary antibodies (Jackson Immunoresearch, West Grove, Pa.). The bacteria were washed and analyzed by FACSCalibur® (BD).
(In general: A flow cytometer gives signals particle by particle.)

Another assay deals with USA300. The assay can be described thus: Uptake and killing of preopsonized USA300 by human PMN. It counts as cell-based, Staphylococcus aureus. The method, then: as §1
Another assay relates to 15 S. aureus strains. In words: FACS analysis of rF1 binding to S. aureus strains. On the set-up: species or system Staphylococcus aureus. Particulars: flow cytometry, all 15 strains tested. As to the method: as §2
The test system of assay [1] is USA300 derived from infected mouse kidneys, livers and lungs. In words: FACS analysis of rF1 binding to USA300 from infected mouse tissues. On the set-up: species or system Staphylococcus aureus. As to the method: (§3) For antibody staining of bacteria from infected mouse tissues, 6-8 weeks old female C57Bl/6 mice (Charles River, Wilmington, Mass.) were injected intravenously with 10^8 CFU of logphase-grown USA300 in PBS. Mouse organs were harvested two days after infection. Rabbit infective endocarditis (IE) was established as described in Tattevin P, et al. (2010) Antimicrobial agents and chemotherapy 54: 610-613. Rabbits were injected intravenously with 5×10^7 CFU of stationary-phase grown MRSA strain COL, and heart vegetations were harvested eighteen hours later. Treatment with 30 mg/kg of vancomycin was given intravenously b.i.d. 18 h after infection with 7×10^7 CFU stationary-phase COL.
(§4) To lyse mouse or rabbit cells, tissues were homogenized in M tubes (Miltenyi, Auburn, Calif.) using a gentleMACS® cell dissociator (Miltenyi), followed by incubation for 10 min at RT in PBS containing 0.1% Triton-X100 (Thermo), 10 µg/mL of DNAseI (Roche) and Complete Mini protease inhibitor cocktail (Roche). The suspensions were passed through a 40 micron filter (BD) and bacteria were stained with mAbs as described above. […] During flow cytometry analysis, bacteria were gated for positive staining with mAb 702 from double fluorescence plots. […]

Assay [2] relates to MRSA COL bacteria from heart vegetations. In words: FACS analysis of rF1 binding to bacteria from rabbit infective endocarditis heart vegetations. On the set-up: species or system Staphylococcus aureus. Particulars: rabbit model of infectious endocarditis. The method, then: as §3, §4
For another assay, the system named is S. epidermidis. In words: FACS analysis of rF1 binding to S. epidermidis. On the set-up: species or system Staphylococcus epidermidis. Particulars: flow cytometry. The method, then:
as §2

In assay [3] the test system is S. saprophyticus, S. lugdunensis, S. simulans, S. carnosus, Streptococcus pyogenes, Bacillus subtilis, Enterococcus faecalis, Listeria monocytogenes. In words: FACS analysis of rF1 binding to other staphylococcal and Gram-positive species. Particulars: flow cytometry. As to the method: as §2

B1: rF1: recombinantly produced F1, fully human IgG1 anti-SDR monoclonal antibody binding S. aureus and S. epidermidis (antibody, V domains shown)
VH: EVQLVESGGGLVQPGGSLRLSCAASGFTLSRFAMSWVRQAPGRGLEWVASINNGNNPYYARSVQYRFTVSRDVSQNTVSLQMNNLRAEDSATYFCAKDHPSSGWPTFDSWGPGTLVTVSS
VL: DIQLTQSPSALPASVGDRVSITCRASENVGDWLAWYRQKPGKAPNLLIYKTSILESGVPSRFSGSGSGTEFTLTISSLQPDDFATYYCQHYMRFPYTFGQGTKVEIKRTV
Consider B1, for which the “maximum binding relative to isotype-matched anti-ClfA mAb” value with MRSA strain USA300 is “approximately 10 fold”. In addition, in the assay with USA300 (no PMN), the “viability of USA300 in the absence of PMN” value was “did not affect viability”. Further, in the assay with USA300 (preopsonized USA300, human PMN), the “bacterial killing by PMN (viability)” value is “potent killing” and the “bacterial uptake by PMN” value is “increased uptake”. Further, the “binding to S. aureus strains” value in the assay on 15 S. aureus strains was “potent binding activity”. Also, in assay [1] (kidneys, livers and lungs after systemic infection), the “binding to USA300 from infected mouse tissues” value is reported as “strongly bound”. For the same molecule, the “duration of sustained binding to USA300 from mouse kidneys after infection” value in assay [1] (mouse kidneys) is recorded as “at least 8 days”. Moreover, the “binding to MRSA COL from rabbit heart vegetations” value in assay [2] is listed as “strongly bound”. Besides, the “binding to S. epidermidis” value with S. epidermidis is listed as “detectable”. The “binding to other staphylococcal and Gram-positive species” value in assay [3] was “did not bind”.

The values above are taken from patent US20180125995A1, “ANTI-STAPHYLOCOCCUS AUREUS ANTIBODY RIFAMYCIN CONJUGATES AND USES THEREOF” (priority 2014, published 2018).
